In paper PMC12098241:

Tests used:
[1] = target: SIRPα-αMSLN^M4F5 local inhibitory checkpoint monoclonal antibody (LicMAb); assay: flow cytometry on cells; binding to SUIT-2-MSLN cells in the presence of 2.5 µM rhMSLN as competitor (Supplementary Figure S6b, c)
[2] = target: SIRPα-αMSLN^M4F5 local inhibitory checkpoint monoclonal antibody (LicMAb); assay: flow cytometry on cells; binding to SUIT-2-MSLN cells in the presence of saturating concentrations of soluble MSLN (Supplementary Figure S7a)

percent reduction of the binding of m2 to SUIT-2-MSLN cells by 2.5 µM rhMSLN [1]: 40%
percent reduction of the binding of m2 to SUIT-2-MSLN cells by saturating soluble MSLN [2]: 53%
Substance: recombinant human MSLN (rhMSLN) (from UniProt Q13421 37-598) (natural protein)
